# Assay results from the DeepSol protein solubility set.
# Assay: soluble on expression in E. coli; label from the status in PepcDB or PDB records
row,Sequence,soluble on expression in E. coli
1,MGSDKIHHHHHHMIQMFINLLETIPSLGRHSFQVAFLSAQIAEKMNLDPNVSFLSGLIHDLGLILPYEGKTLLDEIDDTFVIVRDTPGKPLHLHSILGSFITDYVEKLKPISPIVLKHHFPASYLDKTEENLISNIVFISDQVSRYTMINLDVSPRDILIALEDMKSFFFPEVFEACREVLNTEFVQWQLENILAGYDVTDLLDHHVRNCPDCDKKDLIQIGKIVSFIVDTKSEFTTSHTWRVAVFSEKMAEKAGRNSEDLFIAGLYHDIGKISVSYKILEKPAKLSDEEYAIMKKHVYFSYLILLPYKDENWFLPAVRHHERLDGYGYPFRLKGEEMTLEDKIIQVADVFSALLEERPYRPANTVEKALSMVREEVKKKKLSQEAFELLESSLEDFDLSSIEVGREIRKEIRTFVNRVVEKFGDYVL,not soluble
2,MPQTPPFPVMYGSTNGYNKNLYKAKEEDYEGLYYHDNNLISGSLEALIEHLVPTVAYYPDRTYIFTFLLSSRLFLHPYELMSKVCHLCVDQQRLSDPQADKARVRKIAPKILQLLTEWTETFPYDFRDERMMKSLKELTHRLSTGEDLYRKAVQQMTQTLIRKLTTLSQYEEALAKINSSVTDRLTVLKTKPQSIQRDILTICNDPFTLAQQLTHIELERLSYIGPEEFVQAFVQKDPLDNDKNCFSDHKKASNLEAYVEWFNRLSYLVATEICMPVKKKHRARVIEFFIDVARECFNIGNFNSLMAIITGMNMSPVSRLKKTWAKVKTAKFDILEHQMDPSSNFYNYRTALRGATQRSITAHSSREKIVIPFFSLLIKDIYFLNEGCANRLPNGHVNFEKFWGLAKQVTEFMTWKKVECPFDRDRKILQYLLTAPVFSEDALYLASYESEGPENNMEKDRWKSLRSSLLNRT,soluble
3,MGSDKIHHHHHHVLLEEFENTSAVIEPTDMAIRGGGEVCETMIFSFNGEIVDRVRQLPESREGGYLESINGRHPWYILERDGVRVAVMLAVIGAPMAVGHLEELKACGFENFIVLGSCGVLDKSLVADKIILPSSALRDEGTSYHYAPASDEISYDPALLLTMEKALDQAGIEHVRAKTWTTDAFYRETSAKVKRRLAAGAMVVDMEASAIMAWANFRQAKVYQFFYTADYVDYHKNEWDARREERTADSMTFFEVAMAIARKLESTSC,not soluble
4,MEITNPILTGFNPDPSLCRQGEDYYIATSTFEWFPGVRIYHSRDLKNWSLVSTPLDRVSMLDMKGNPDSGGIWAPCLSYADGKFWLLYTDVKIVDSPWKNGRNFLVTAPSIEGPWSEPIPMGNGGFDPSLFHDDDGRKYYIYRPWGPRHHSNPHNTIVLQAFDPQTGTLSPERKTLFTGTPLCYTEGAHLYRHAGWYYLMAAEGGTSYEHAVVVLRSKNIDGPYELHPDVTMMTSWHLPENPLQKSGHGSLLQTHTGEWYMAYLTSRPLRLPGVPLLASGGRGYCPLGRETGIARIEWRDGWPYVEGGKHAQLTVKGPQVAEQPAAVPGNWRDDFDASSLDPELQTLRIPFDDTLGSLTARPGFLRLYGNDSLNSTFTQSTVARRWQHFAFRAETRMEFSPVHFQQSAGLTCYYNSKNWSYCFVDYEEGQGRTIKVIQLDHNVPSWPLHEQPIPVPEHAESVWLRVDVDTLVYRYSYSFDGETWHTVPVTYEAWKLSDDYIGGRGFFTGAFVGLHCEDISGDGCYADFDYFTYEPV,soluble
5,MGSDKIHHHHHHMLTSRKFFPSLSSLRALEALDRLGSASAVAEELALTQSAVSRQLQTLEGQMGVELIRRDRKRLSLTPAAQDYVTEIREALNRIAQASLRLQVAPAGGTVNLAILPTFGMRWLMPRLPEFSRLHPDITINMTTRLRPFNFASEPFDAALHFGEPDWPGTDRLLLRAERVLPVCAPGLLPHGAPKSPADLLRLPLLHIQTRPRAWQDWFAQMGVTCPETLPGTLYDQFATIGQAALHGLGVALLPNYVVEQDLATGRLVAAYPDAVETLGAYYLVWPRARGNDPSLRAFRHWLAAQAEPEEGLPR,not soluble
6,MITVKNIEGSETYVLRQKILRPNQTLADCKYPSDYETDTFHLGAFINDQLISIASFSKEMHPDLQAGMHYRLRGMATLPEFRNNHAGSSLIQKAEQILQERQANMLWCNGRITVADYYKRLGFQEHGEIFEIEPIGLHKVLYKRI,not soluble
